Legend:
Assay in all cases: cell_activity
ZFN 51463 (synthetic) = settings: paired with 51536, CD34+ cells
ZFN 51446 (synthetic) = settings: paired with 51536, CD34+ cells
ZFN 51478 (synthetic) = settings: paired with 51536, CD34+ cells
ZFN 51862 (synthetic) = settings: paired with 51949, CD34+ cells, 500 ng mRNA each
ZFN 51484 (synthetic) = settings: paired with 51536, CD34+ cells
ZFN 46801 (synthetic) = settings: paired with 47923, K562, 25 ng each
ZFN 51477 (synthetic) = settings: paired with 51536, CD34+ cells
ZFN 51487 (synthetic) = settings: paired with 51536, CD34+ cells
ZFN 51856 (synthetic) = settings: paired with 51949, CD34+ cells, 500 ng mRNA each
ZFN 51990 (synthetic) = settings: paired with 51857, CD34+ cells, 500 ng mRNA each
ZFN 51536 (synthetic) = settings: paired with 51446, CD34+ cells
ZFN 51556 (synthetic) = settings: paired with 51446, CD34+ cells
ZFN 51979 (synthetic) = settings: paired with 51857, CD34+ cells, 500 ng mRNA each
ZFN 51519 (synthetic) = settings: paired with 51446, CD34+ cells
ZFN 52032 (synthetic) = settings: paired with 51857, CD34+ cells, 500 ng mRNA each
ZFN 51993 (synthetic) = settings: paired with 51857, CD34+ cells, 500 ng mRNA each
ZFN 47923 (synthetic) = settings: paired with 46801, K562, 25 ng each
ZFN 52015 (synthetic) = settings: paired with 51857, CD34+ cells, 500 ng mRNA each
ZFN 51534 (synthetic) = settings: paired with 51446, CD34+ cells
ZFN 51982 (synthetic) = settings: paired with 51857, CD34+ cells, 500 ng mRNA each
ZFN 51541 (synthetic) = settings: paired with 51446, CD34+ cells
ZFN 51535 (synthetic) = settings: paired with 51446, CD34+ cells

## AAAGCAACTGTTAGCTTGCACTAGACTA (double strand) [BCL11A +58 enhancer left half-site, 4-finger]
ZFN 51463 (synthetic)
  activity: 82.7 % indels
ZFN 51446 (synthetic)
  activity: 83.7 % indels

## AAAGCAACTGTTAGCTTGCACTAGACTA (double strand) [BCL11A +58 enhancer left half-site, 6-finger]
ZFN 51478 (synthetic)
  activity: 72.3 % indels
ZFN 51862 (synthetic)
  activity: 18.4 % indels
ZFN 51484 (synthetic)
  activity: 75.2 % indels
ZFN 46801 (synthetic)
  activity: 9.3 % NHEJ
ZFN 51477 (synthetic)
  activity: 72 % indels
ZFN 51487 (synthetic)
  activity: 66.3 % indels
ZFN 51856 (synthetic)
  activity: 38.4 % indels

## CACAGGCTCCAGGAAGGGTTTGGCCTCT (double strand) [BCL11A +58 enhancer right half-site]
ZFN 51990 (synthetic)
  activity: 51 % indels
ZFN 51536 (synthetic)
  activity: 83.7 % indels
ZFN 51556 (synthetic)
  activity: 74.1 % indels
ZFN 51979 (synthetic)
  activity: 39.8 % indels
ZFN 51519 (synthetic)
  activity: 81.5 % indels
ZFN 52032 (synthetic)
  activity: 53.9 % indels
ZFN 51993 (synthetic)
  activity: 43.9 % indels
ZFN 47923 (synthetic)
  activity: 9.3 % NHEJ
ZFN 52015 (synthetic)
  activity: 35.2 % indels
ZFN 51534 (synthetic)
  activity: 84.2 % indels
ZFN 51982 (synthetic)
  activity: 30.9 % indels
ZFN 51541 (synthetic)
  activity: 87.8 % indels
ZFN 51535 (synthetic)
  activity: 82.2 % indels

From patent US20180111975
